In test [1] the target is T1, BRAF V600E peptide (biotinylated synthetic peptide including the amino acids of and surrounding the BRAF … (also: biotinylated (position not given here))).
T1 peptide: GLATEKSRWSG
As to the kind of experiment: BLI. (In BLI a coated tip is dipped into the sample, and binding shifts an interference pattern.)

Test [2] addresses BRAF in colorectal cancer specimens with V600E mutation status: negative (human) (UniProt P15056). Briefly: IHC, FLEX++ Dako OMNIS, CRC block BRAF- (slide 51), V600E mutation status negative. Also on record: scale not given here.
Test [3] shares this target. As to the kind of experiment: IHC, FLEX++ Dako OMNIS, CRC block 7 BRAF-, V600E mutation status negative.
The target is the same in test [4]. As to the kind of experiment: IHC, FLEX++ Dako OMNIS, CRC block BRAF- (slide 52), V600E mutation status negative.
Test [5] has the same target. Briefly: IHC, FLEX++ Dako OMNIS, CRC block 9 BRAF-, V600E mutation status negative.
Test [6] shares this target. As to the kind of experiment: IHC, FLEX++ Dako OMNIS, CRC block 10 BRAF-, V600E mutation status negative (clinical status Equivocal/Negative).
For test [7] the target is unchanged. Briefly: IHC, FLEX++ Dako OMNIS, CRC block 6 BRAF-, V600E mutation status negative.
Test [8] has the same target. Briefly: IHC, FLEX++ Dako OMNIS, CRC block 8 BRAF-, V600E mutation status negative.

No end group written: not given here.

B1: chimeric BRAF V600E antibody (mouse variable domains, rabbit IgG heavy chain and rabbit kappa1 light chain constant domains; heavy chain SEQ ID NO:2 and light … (antibody, V domains shown)
VH: QAYLQQSGAELVRPGASVKMSCKASGYTFTSYNMHWIKQTPRQGLEWIGAIYPGNGDTSYNQKFKGKATLTVDRSSNTAYMQLSSLTSEDSAVYFCARDGISPWGQGTLVTVSS
VL: DIKMTQSPSSMYASLGERVTITCKASQDINRYLSWFQQKPGKSPKTLIYRANRVLDGVPSRFSGSGSGQDYSLTISSLESEDMGIYYCLHYDEYPYTYGGGTKLEIKG
Usually Kd stands for the concentration at which binding is half-saturated. The molecule B1 gave a Kd in test [1] of 5.05 pM. Also, the Tumor cells staining intensity is 0.125 in test [2]; 0.125 in test [3]; 0.125 in test [4]; 0.125 in test [5]; 0.25 in test [6]; 0.125 in test [7]. Besides, in test [8], the Tumor cells staining intensity came out at 0.

B2: recombinant mouse anti-human BRAF V600E antibody (mouse IgG2a heavy chain, mouse kappa1 light chain) (antibody, V domains shown)
VH: QAYLQQSGAELVRPGASVKMSCKASGYTFTSYNMHWIKQTPRQGLEWIGAIYPGNGDTSYNQKFKGKATLTVDRSSNTAYMQLSSLTSEDSAVYFCARDGISPWGQGTLVTVSS
VL: DIKMTQSPSSMYASLGERVTITCKASQDINRYLSWFQQKPGKSPKTLIYRANRVLDGVPSRFSGSGSGQDYSLTISSLESEDMGIYYCLHYDEYPYTYGGGTKLEIK
B2 had a Kd in test [1] of 4.86 pM.

The record behind these values is US20230416400A1 (published 2023).
